This is an account of results in the nanobody polyreactivity screen of Harvey et al. (2022).

The nature of the data set: yeast display, Sf9 membrane polyspecificity reagent, FACS + sequencing; frameworks hold sequencing errors. The procedure, abridged:
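Synthetic nanobody libraries on Saccharomyces cerevisiae BJ5465 were galactose-induced for 36–48 hours, stained 1 hour at 4 °C with 10% biotinylated, detergent-solubilized Sf9 membrane reagent and enriched on streptavidin microbeads. FACS then separated cells into low and high (top ~1%) gates by anti-HA (expression) and streptavidin (reagent binding) fluorescence. Genes were colony-PCR amplified, MiSeq 2 × 250 sequenced and CDR-length filtered. A clone's polyreactivity label is that of its gate of origin.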
Regarding “QVQLVESGGGLVQAGRSLRLSCAASGRIFGTYAMGWYRQAPGKERELVAAITQSGGRTYYADSVKGRFTISRDNAKNTVYLQMNSLKPEDSAVYFCNIVTYRGIGLGYDYWGHGTQVTVSS”, the “polyreactivity (PSR sort gate)” value is “high polyreactivity”.

Turning to “QVQLVESGGGLVQAGRSLRLSCAASGRIFIWYRMGWYRQAPGKERELVSAITRRGGSTYYADSVKGRFTISRDNAKNTVYLQMNSLKPVDTAVYYCNADAIVSPYRLWTVTYSYWGQGTQVSVSS”, the “polyreactivity (PSR sort gate)” value is “low polyreactivity”.

On to “QVQLVESGGGLVQAGRSLRLSCAASGRTFVYYAMGWYRQAPGKERELVATISSSDSTNYADSVKGRFTISRDNAKNTVYLQMNSLKPEDTAVYYCAAGPKGGGYYDPFDYWGQGTQVTVSS”, for which the “polyreactivity (PSR sort gate)” value is listed as “low polyreactivity”.

Regarding “QVQLVESGGGLVQAGRSLRLSCAASGSIFTYYAMGWYRQAPGKERELVAAINWSDSSTYNADSVKGRFTISRDNAKNTVYLQMNSLKPEDTAVYDCAATNYADGDYWGQGTQVTVSS”, the “polyreactivity (PSR sort gate)” value is “low polyreactivity”.

For the sequence “QVQLVESGGGLVQAGRSLRLSCAASGSILGGNAMGWYRQAPGKDRELVAAITFSGGGTYYADSVKGRFTISRDNAKNTVDFQMNSLKPEDTAVYYCAADKVGYTYEFDYWGQGTQVTVSS”, the “polyreactivity (PSR sort gate)” value is recorded as “low polyreactivity”.

In the case of “QVQLVESGGGLVQAGRSLRLSCAASGSILLYYTMGWYRQAPGKERELVASITSGGRTYYADSVKGRFTISRDNAKNTVYLQMNSLKPEDTAVYYCAADVWKLYDYWGQGTQVTVSS”, the “polyreactivity (PSR sort gate)” value is reported as “low polyreactivity”.

On to “QVQLVESGGGLVQAGRSLRLSCAASGSTYGYYAMGWSRQAPGKERELVAAISSTGGRTYYADSVKGRFTISRDNAKNTVYVQMNSLKPEDTAVYYCAARQLSSHYDYWGQGPQVTVSS”, for which the “polyreactivity (PSR sort gate)” value is on record as “low polyreactivity”.

Take “QVQLVESGGGLVQAGRSLRLSCAATGLIFLLNAMGWYRQAPGKERELVAVITRVGDTNYADSVKGRFTISRDNAKNTVYLQMNSLKPEDTAVYSCAATSLTYEGYYWRQGTQVTVSS”: the “polyreactivity (PSR sort gate)” value is on record as “low polyreactivity”.

For “QVQLVESGGGLVQAGRSLRLSCAPSGSTFKHNAMGWYRQAPGKERELVATITLRDGSTYYADSVKGRFTISRDNAKNTVYLQMNSLKPEDTAVYYCATYYSAINYGWSKTILYDYWGQGTQVTVSS”, the “polyreactivity (PSR sort gate)” value is given as “low polyreactivity”.

As for “QVQLVESGGGLVQAGRSLRLSCASSGSPFDPYGKGRYRQAPGKEWEWVAAITASGRTNYADSVKGRFTISRDTAKNTVYLQMNSLKPEDTAFYYCATRKELYFYRGYEYWGQGTQVTVSS”, the “polyreactivity (PSR sort gate)” value is reported as “low polyreactivity”.

Turning to “QVQLVESGGGLVQAGRSLRLSCPAYGFTFVINDMGWYRQAPGKEREFVADITSGGDTYYADSVKGRFTISRDNAKNTVYLQMNSLKPEDTAVFYCAADIYPDWIYLLYGYWGQGTQVTVSS”, the “polyreactivity (PSR sort gate)” value is on record as “low polyreactivity”.

Consider “QVQLVESGGGLVQAGRSLRLTCAASGFTFADNTMGWYRQAPGKDRELVAAINDAGGTNYADSVKGRFTISRDNEKNTVYLQMNSLKAEDTAVYYCAADGRIYLTYHEMEYWGQGTQVTVSS”, for which the “polyreactivity (PSR sort gate)” value is reported as “low polyreactivity”.

As to “QVQLVESGGGLVQAGRSLRLTCAASGSIFYYYAMGWYRQAPGNERELVAAISSGGRTYYADSVKGRFTISRENANNNVYLQMKSLKTEDTAVYYCAASGGSYSVGRYYYWGQGSQVTVSS”, the “polyreactivity (PSR sort gate)” value is “high polyreactivity”.

As for “QVQLVESGGGLVQAGSSLRLSCAASGGTFYINTKGWYRKAPGKERELVATITIVVSTKYADSVKGRFTISRDNAKNTVYLQMNSLKPEDTAVYYCAKDDVYRDSYLVFDGEMDYWGQGTQVTVSS”, the “polyreactivity (PSR sort gate)” value is “low polyreactivity”.

In the case of “QVQLVESGGGLVQAGSSLRLSCAASGSIFPVYAMGWYRQSPGKERELVAAISCIGGGTYYADSVKGRFTISRDNAKNTVYLQMNSLKPEDTAVYYCAAVPYTSEYDYWGQGTQVTVSS”, the “polyreactivity (PSR sort gate)” value is “high polyreactivity”.

In the case of “QVQLVESGGGLVQAGSSLRLSCAASGSTYAFYALGWYRQAPGKAMELVDAITSGGTTNYADSVKGRFTISRDNAKNTVYFQMISLKPEDTAVYYCNAYYLGWYRVRAVTGYDYWGQGTQVTLSS”, the “polyreactivity (PSR sort gate)” value was “low polyreactivity”.

As to “QVQLVESGGGLVQAGVSLPLICAASGFTIAYYTMGWYRQAPGKERELVAAISRRGSSTYYADSVMGRFTISRDNAKNTVDLQMNSLKPEDTAVYYCNKYSVLTPGYYYWGQGTQVTVSS”, the “polyreactivity (PSR sort gate)” value was “high polyreactivity”.

Turning to “QVQLVESGGGLVQAGVSLRLRCASSGFTFRPYAIGWYRQAPGKERELVAAITSGDSTNYADSVKGRFTISRDNEKNTVYLQMNSLKREDTAVYYCAADSTGRPSVSYDYWGQGTQVTVSS”, the “polyreactivity (PSR sort gate)” value is given as “low polyreactivity”.

Consider “QVQLVESGGGLVQAGVSLRLSCAASARSFAWKAMVWYRQAPGKERELVAAITWSGGSTYYADSVKGRFTISRDNGKNTVYFQLNSLKQEDTAVYYCNKLYPYYATHTTRGLDYWGQGTQVTVSS”, for which the “polyreactivity (PSR sort gate)” value is recorded as “high polyreactivity”.

Regarding “QVQLVESGGGLVQAGVSLRLSCAASGFIFNIYAMGWYRQAPGKERELVAAISWRGGSTYYADSVKGRFTISRDNAKNTVYLQMNSLKPEYTAVYYCDVEDVWVGVFGDYDYWGEGTQVTVSS”, the “polyreactivity (PSR sort gate)” value is recorded as “low polyreactivity”.

For “QVQLVESGGGLVQAGVSLRLSCAASGFIFVSYAMGWYRQAPGIERELVAAIDRIGGITYYADSVKGRFTISRDNAKNTVYLQMNSLKPVDTAVYYCAAAARYATVRVGREYYWGQGTQVTVSS”, the “polyreactivity (PSR sort gate)” value is on record as “low polyreactivity”.

In the case of “QVQLVESGGGLVQAGVSLRLSCAASGFIFYWYVMGWYRHAPGKERELVAGISKNGTNTYYADSVKGRFTISRDNAKNTVYLQMNSLKPEDTAVYYCAAAKCRTKYDYWGQGTQVTVSS”, the “polyreactivity (PSR sort gate)” value is reported as “high polyreactivity”.

Consider “QVQLVESGGGLVQAGVSLRLSCAASGFTFAYYAMGWYRQAPGKERELVAAITSGGRTNYADSVKGRFTISRDNAKNTGYLQMISLKAEDTAVSYCAKYRRGGSRHYSVFNHDYWGLGTQVTVSS”, for which the “polyreactivity (PSR sort gate)” value is recorded as “high polyreactivity”.

Regarding “QVQLVESGGGLVQAGVSLRLSCAASGFTIKLYAMGWYRQAPGKERELVAAISSSGGSTYYADSVKGRFTISRDNAKNTVYLQMISLKPEDTAVYYCAARTRHVHYGYWGQGTQVTVSS”, the “polyreactivity (PSR sort gate)” value was “high polyreactivity”.

On to “QVQLVESGGGLVQAGVSLRLSCAASGGIFGNYAMGGYRQAPAKERELVAAINGGTSTYYADSVKGRFTISRDNAKNTVYLQMNCLKPEDTAGYYCAADWRYLYYALDYWGQGTQVTVSS”, for which the “polyreactivity (PSR sort gate)” value was “low polyreactivity”.

For the sequence “QVQLVESGGGLVQAGVSLRLSCAASGGTFRPYAMGWYRQERGKERELVAAISYTGSTYYADSVKWRFTISRDNAKNTVYLQMNSLKPEDTGVYYCAKDFWYPPRFDYWGQGTQVTVSS”, the “polyreactivity (PSR sort gate)” value was “low polyreactivity”.

On to “QVQLVESGGGLVQAGVSLRLSCAASGLTFGAYAMGWYRQAPGKERELVAAINVSGGSTYYADSVKGRFTISRDNAKNTVYLQMNSLKPEDTAVYYCNAGLVLGGIFIPLYDYWGQGTQVTVSS”, for which the “polyreactivity (PSR sort gate)” value is reported as “high polyreactivity”.

Consider “QVQLVESGGGLVQAGVSLRLSCAASGLTFNYYDMGWYRQAPGKERELVAAISRSGTNTSYADSEKGRFTISRDNAKNTVYLQMNSLKPEDTAVYYCNADYYSRIVGVRIYDYWGQGTQVTVSS”, for which the “polyreactivity (PSR sort gate)” value was “low polyreactivity”.

“QVQLVESGGGLVQAGVSLRLSCAASGLTFPGYAMGWYRQATGKQRELVAAISRRGGSTYYADSVKGRFTISRDNEKNTVYLKMNSLKTEDTAVYYCNAVIRRYFVPSSYDYWGQGTQVTVSS”: the “polyreactivity (PSR sort gate)” value is “high polyreactivity”.

On to “QVQLVESGGGLVQAGVSLRLSCAASGNTFWVYAKGSYRQAPGKARELVAAMTRGGSTNYEDSVKGRFTISRDNAKNTVYFQMNSLKPEDTAGYYCAAESFIYFPYKMDYWGQGTQVTVSS”, for which the “polyreactivity (PSR sort gate)” value is “low polyreactivity”.

For “QVQLVESGGGLVQAGVSLRLSCAASGRIFFPNGMGCYRQAPGKESELVATISRIGGSTYYADSVKGRFTISRDNAKNTVYLQMNSLKPEDTAVYYFAAQYSYGVYWTLPYGYNYWGQGTQVTVSS”, the “polyreactivity (PSR sort gate)” value was “low polyreactivity”.

Regarding “QVQLVESGGGLVQAGVSLRLSCAASGRIFHFYAMGCYRQAPGKERELVASITWRGGRTYYADSVKARFTISRDNAKNTVFLQMNSLKPEDTAVYYCAADFRSGFSSSTTPVQSDWGQGTQVTVSS”, the “polyreactivity (PSR sort gate)” value was “low polyreactivity”.

As to “QVQLVESGGGLVQAGVSLRLSCAASGRIFPTNAMGWYRQAPGKERELVAAIPVSGGSTYYADSVKGRFTISRDNAKNTVYLQMNSLKPEDTAVYYCAVDDRASVGSRLDHWGQGTQVTVSS”, the “polyreactivity (PSR sort gate)” value is “low polyreactivity”.

In the case of “QVQLVESGGGLVQAGVSLRLSCAASGRIFSPYAMGWYRQAPGKERELVAAIDWDGGGTYYADSVKGRFTISRDNAKNTVYLQMNSLKPEDTAVYYCAAETDLANGTSPSDYCGQGTQVTVSS”, the “polyreactivity (PSR sort gate)” value was “low polyreactivity”.

In the case of “QVQLVESGGGLVQAGVSLRLSCAASGRILHGYAMGWYRQAPGKEREFVAAITSSGGRTYYADSVKGRFTISRDNAKNTVYLQMNSLKPDDTAVYYCAADRPAYRTGDSKYDYWGLGTQVTVSS”, the “polyreactivity (PSR sort gate)” value is recorded as “low polyreactivity”.

With “QVQLVESGGGLVQAGVSLRLSCAASGRISVFYTMGWYRQAPGKERELVAVNRTSGGRTNYADSVKGRFTISRDNAKNTVDLQMNSLKPEDTAVYYCAARVVRYGYKYYYWGQGTQVTVSS”, the “polyreactivity (PSR sort gate)” value is “low polyreactivity”.

On to “QVQLVESGGGLVQAGVSLRLSCAASGRTLPRYAMGWYRQAPGKEREFVAAITFGGDSTYYADSVKGRFTISRDNAKNTVYLQMNSLKPEDTAVYSCAAKSFRGQRFGYWGQGTQVTVSS”, for which the “polyreactivity (PSR sort gate)” value is listed as “high polyreactivity”.

On to “QVQLVESGGGLVQAGVSLRLSCAASGSIFDFYAMGWYRQAPGKERELVATITASGGSTYYADSVKGRFTISRDNAKNTVYLQMNSLKPEDTAVYYCNADSVYWGQGTQVTVSS”, for which the “polyreactivity (PSR sort gate)” value is “low polyreactivity”.

Consider “QVQLVESGGGLVQAGVSLRLSCAASGSIFDSNAMGWYRQAPGKERELVATISSVGSTNYADSVKGRFTISRDNAKNTVYLQMNSLKPEDTAVYYCARVVDAQGYYSAASGGYYWGQGTQVSVSS”, for which the “polyreactivity (PSR sort gate)” value is recorded as “low polyreactivity”.

On to “QVQLVESGGGLVQAGVSLRLSCAASGSIFGWYAMGWYRQAPGKERELVAGITRSGGSTYYADSVKGRFTISRDNAKNNVYLQMDSLNPEDTAVYYCNADLYRKRAWGSRDGSWGQGTQVTVSS”, for which the “polyreactivity (PSR sort gate)” value is “low polyreactivity”.

Regarding “QVQLVESGGGLVQAGVSLRLSCAASGSTFIRNAMGWYRKAPGKERELVAAISSGGASTHYADSVKGRFTISRDNAKNTVYLQMKSLKPEDTAVYYCSATHRWYYWPGIPAYDYWGQGTQVTVSS”, the “polyreactivity (PSR sort gate)” value is reported as “low polyreactivity”.
